Each block holds one molecule with its values, some of them ahead of it.
How the values were obtained:
[1] = biological target: human zcytor17 receptor, full length, on transfected cells (human); experiment: flow cytometry (SA-PE), BHK-C17 cells, ligand 2.0 µg/mL
[2] = biological target: human zcytor17 receptor, full length, on transfected cells (human); experiment: flow cytometry (SA-PE), BAF3-C17 cells, ligand 1.0 ng/mL
[3] = biological target: human zcytor17 receptor, full length, on transfected cells (human); experiment: flow cytometry (SA-PE), BAF3-C17 cells, ligand 10.0 ng/mL
[4] = biological target: human zcytor17 receptor, full length, on transfected cells (human); experiment: flow cytometry (SA-PE), BHK-C17 cells, ligand 0.001 µg/mL
[5] = biological target: human zcytor17 receptor, full length, on transfected cells (human); experiment: flow cytometry (SA-PE), BHK-C17 cells, ligand 0.010 µg/mL
[6] = biological target: human zcytor17 receptor, full length, on transfected cells (human); experiment: flow cytometry (SA-PE), BHK-C17 cells, ligand 0.100 µg/mL
[7] = biological target: human zcytor17 receptor, full length, on transfected cells (human); experiment: flow cytometry (SA-PE), BAF3-C17 cells, ligand 100.0 ng/mL
[8] = biological target: human zcytor17 receptor, full length, on transfected cells (human); experiment: flow cytometry (SA-PE), BHK-C17 cells, ligand 0.0001 µg/mL
[9] = biological target: human zcytor17 receptor, full length, on transfected cells (human); experiment: flow cytometry (SA-PE), BHK-C17 cells, ligand 0.00001 µg/mL
[10] = biological target: human zcytor17 receptor, full length, on transfected cells (human); experiment: flow cytometry (SA-PE), BHK-C17 cells, ligand 0.000001 µg/mL
[11] = biological target: human zcytor17 and OSMRbeta co-expressed on transfected cells (human); experiment: flow cytometry (SA-PE), BHK C17 + OSMRbeta cells, ligand 2.0 µg/mL
[12] = biological target: human zcytor17 and OSMRbeta co-expressed on transfected cells (human); experiment: flow cytometry (SA-PE), BAF3-C17 + OSMRbeta cells, ligand 0.04 µg/mL
[13] = biological target: human zcytor17 and OSMRbeta co-expressed on transfected cells (human); experiment: flow cytometry (SA-PE), BAF3-C17 + OSMRbeta cells, ligand 0.12 µg/mL
[14] = biological target: human zcytor17 and OSMRbeta co-expressed on transfected cells (human); experiment: flow cytometry (SA-PE), BAF3-C17 + OSMRbeta cells, ligand 0.37 µg/mL
[15] = biological target: human zcytor17 and OSMRbeta co-expressed on transfected cells (human); experiment: flow cytometry (SA-PE), BAF3-C17 + OSMRbeta cells, ligand 1.11 µg/mL
[16] = biological target: human zcytor17 and OSMRbeta co-expressed on transfected cells (human); experiment: flow cytometry (SA-PE), BAF3-C17 + OSMRbeta cells, ligand 10.0 µg/mL
[17] = biological target: human zcytor17 and OSMRbeta co-expressed on transfected cells (human); experiment: flow cytometry (SA-PE), BAF3-C17 + OSMRbeta cells, ligand 3.33 µg/mL
[18] = biological target: human zcytor17 and OSMRbeta co-expressed on transfected cells (human); experiment: flow cytometry (SA-PE), BHK C17 + OSMRbeta cells, ligand 0.001 µg/mL
[19] = biological target: human zcytor17 and OSMRbeta co-expressed on transfected cells (human); experiment: flow cytometry (SA-PE), BHK C17 + OSMRbeta cells, ligand 0.010 µg/mL
[20] = biological target: human zcytor17 and OSMRbeta co-expressed on transfected cells (human); experiment: flow cytometry (SA-PE), BHK C17 + OSMRbeta cells, ligand 0.100 µg/mL
[21] = biological target: human zcytor17 and OSMRbeta co-expressed on transfected cells (human); experiment: flow cytometry (SA-PE), BHK C17 + OSMRbeta cells, ligand 0.0001 µg/mL
[22] = biological target: human zcytor17 and OSMRbeta co-expressed on transfected cells (human); experiment: flow cytometry (SA-PE), BHK C17 + OSMRbeta cells, ligand 0.00001 µg/mL
[23] = biological target: human zcytor17 and OSMRbeta co-expressed on transfected cells (human); experiment: flow cytometry (SA-PE), BHK C17 + OSMRbeta cells, ligand 0.000001 µg/mL
[24] = biological target: human zcytor17 receptor, full length, on transfected cells (human); experiment: flow cytometry (SA-PE), BHK-C17 cells, ligand 0.0 µg/mL (no ligand, background)
[25] = biological target: human zcytor17 receptor, full length, on transfected cells (human); experiment: flow cytometry (SA-PE), BAF3-C17 cells, ligand 0.0 ng/mL (no ligand, background)
[26] = biological target: human OncostatinM receptor beta (OSMRbeta), full length, on transfected cells (human); experiment: flow cytometry (SA-PE), BHK-OSMRbeta cells, ligand 0.0 µg/mL (no ligand, background)
[27] = biological target: human OncostatinM receptor beta (OSMRbeta), full length, on transfected cells (human); experiment: flow cytometry (SA-PE), BAF3-OSMRbeta cells, ligand 0.00 µg/mL (no ligand, background)
[28] = biological target: human zcytor17 and OSMRbeta co-expressed on transfected cells (human); experiment: flow cytometry (SA-PE), BHK C17 + OSMRbeta cells, ligand 0.0 µg/mL (no ligand, background)
[29] = biological target: human zcytor17 and OSMRbeta co-expressed on transfected cells (human); experiment: flow cytometry (SA-PE), BAF3-C17 + OSMRbeta cells, ligand 0.00 µg/mL (no ligand, background)
[30] = biological target: human OncostatinM receptor beta (OSMRbeta), full length, on transfected cells (human); experiment: flow cytometry (SA-PE), BHK-OSMRbeta cells, ligand 2.0 µg/mL (background level; no binding)
[31] = biological target: human OncostatinM receptor beta (OSMRbeta), full length, on transfected cells (human); experiment: flow cytometry (SA-PE), BAF3-OSMRbeta cells, ligand 0.04 µg/mL (background level; no binding)
[32] = biological target: human OncostatinM receptor beta (OSMRbeta), full length, on transfected cells (human); experiment: flow cytometry (SA-PE), BAF3-OSMRbeta cells, ligand 0.12 µg/mL (background level; no binding)
[33] = biological target: human OncostatinM receptor beta (OSMRbeta), full length, on transfected cells (human); experiment: flow cytometry (SA-PE), BAF3-OSMRbeta cells, ligand 0.37 µg/mL (background level; no binding)
[34] = biological target: human OncostatinM receptor beta (OSMRbeta), full length, on transfected cells (human); experiment: flow cytometry (SA-PE), BAF3-OSMRbeta cells, ligand 1.11 µg/mL (background level; no binding)
[35] = biological target: human OncostatinM receptor beta (OSMRbeta), full length, on transfected cells (human); experiment: flow cytometry (SA-PE), BAF3-OSMRbeta cells, ligand 10.0 µg/mL (background level; no binding)
[36] = biological target: human OncostatinM receptor beta (OSMRbeta), full length, on transfected cells (human); experiment: flow cytometry (SA-PE), BAF3-OSMRbeta cells, ligand 3.33 µg/mL (background level; no binding)
[37] = biological target: human zcytor17 and OSMRbeta co-expressed on transfected cells (human); experiment: cell-based or functional assay
[38] = biological target: human zcytor17, OSMRbeta and WSX-1 co-expressed on transfected cells (human); experiment: cell-based or functional assay

mean fluorescent intensity (MFI) [1]: 3030 | mean fluorescent intensity (MFI) [2]: 17 | mean fluorescent intensity (MFI) [3]: 72 | mean fluorescent intensity (MFI) [4]: 39 | mean fluorescent intensity (MFI) [5]: 244 | mean fluorescent intensity (MFI) [6]: 1600 | mean fluorescent intensity (MFI) [7]: 347 | mean fluorescent intensity (MFI) [8]: 16 | mean fluorescent intensity (MFI) [9]: 15 | mean fluorescent intensity (MFI) [10]: 14 | mean fluorescent intensity (MFI) [11]: 3780 | mean fluorescent intensity (MFI) [12]: 247 | mean fluorescent intensity (MFI) [13]: 364 | mean fluorescent intensity (MFI) [14]: 441 | mean fluorescent intensity (MFI) [15]: 489 | mean fluorescent intensity (MFI) [16]: 531 | mean fluorescent intensity (MFI) [17]: 508 | mean fluorescent intensity (MFI) [18]: 53 | mean fluorescent intensity (MFI) [19]: 328 | mean fluorescent intensity (MFI) [20]: 2130 | mean fluorescent intensity (MFI) [21]: 17 | mean fluorescent intensity (MFI) [22]: 15 | mean fluorescent intensity (MFI) [23]: 14 | mean fluorescent intensity (MFI) [24]: 15 | mean fluorescent intensity (MFI) [25]: 7 | mean fluorescent intensity (MFI) [26]: 0 | mean fluorescent intensity (MFI) [27]: 11 | mean fluorescent intensity (MFI) [28]: 13 | mean fluorescent intensity (MFI) [29]: 7 | mean fluorescent intensity (MFI) [30]: 13 | mean fluorescent intensity (MFI) [31]: 5 | mean fluorescent intensity (MFI) [32]: 5 | mean fluorescent intensity (MFI) [33]: 5 | mean fluorescent intensity (MFI) [34]: 5 | mean fluorescent intensity (MFI) [35]: 6 | mean fluorescent intensity (MFI) [36]: 5
Molecule: biotinylated human zcytor17L (ligand)

proliferation of BaF3/zcytor17/OSMRbeta cells (Alamar Blue) with conditioned media from activated CCRF-CEM and CCRF-HSB2 cells (fold over background) [37]: 10 | proliferation of BaF3/zcytor17/OSMRbeta cells (Alamar Blue) with conditioned media from activated CD3+ selected human cells [37]: 15 fold | proliferation of BaF3/zcytor17/WSX-1/OSMRbeta cells (Alamar Blue) with conditioned media from activated CCRF-CEM and CCRF-HSB2 cells (fold over background) [38]: 10 | proliferation of BaF3/zcytor17/WSX-1/OSMRbeta cells (Alamar Blue) with conditioned media from activated CD3+ selected human cells (fold over background) [38]: 15
B1: human zcytor17lig (untagged, expressed from cDNA or native in conditioned media) (ligand)
chain: MASHSGPSTSVLFLFCCLGGWLASHTLPVRLLRPSDDVQKIVEELQSLSKMLLKDVEEEKGVLVSQNYTLPCLSPDAQPPNNIHSPAIRAYLKTIRQLDNKSVIDEIIEHLDKLIFQDAPETNISVPTDTHECKRFILTISQQFSECMDLALKSLTSGAQQATT
